The values below come from paper PMC12510028, “A biophysical and molecular characterization of the interaction between the Alzheimer risk factor BIN1 and the neuronal scaffold protein p140Cap” (The Journal of Biological Chemistry, 2025).

Assay [1] concerns the target Avi-tagged BIN1 SH3 domain (human) (UniProt O00499). Nature of the assay: SPR; Biacore S200, Biotin CAPture chip; biotinylated Avi-BIN1-SH3 captured on flow cell 2, Avi-tagged CTX-M-14 β-lactamase on reference flow cell 1; peptides injected as analytes at 30 μl/min; 25 °C, 1X PBS-P+; steady-state analysis, 1:1 model. On the technique in general: Surface plasmon resonance follows binding to a sensor surface in real time, without labels.

The target in assay [2] is GST-tagged BIN1-SH3 domain MutK (K30R, rs138047593) (human). Nature of the assay: pull-down; 25 μg GST or GST-BSH3 (WT or mutant) on glutathione-Sepharose with 0.5 mg of 1% Triton X-100 soluble mouse brain homogenate, 2 h at room temperature; washes with 50 mM KCl, 150 mM NaCl, 1.5% IGEPAL; immunoblot for p140Cap and total tau.
The target of another assay is T1, BIN1 SH3 domain (Homo sapiens, UniProt O00499).
T1 construct: His (N); made in house; host or cells: E. coli BL21 (DE3)
T1 sequence (O00499 520-593 limits assumed): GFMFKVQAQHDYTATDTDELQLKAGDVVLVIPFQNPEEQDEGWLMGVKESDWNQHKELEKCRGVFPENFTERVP
The assay can be described thus: SPR equilibrium affinity of peptides for biotinylated BIN1-SH3 domain. Format: binding. To be noted: for Kd: SPR Biacore S200, Biotin CAPture chip, Avi-BIN1-SH3 immobilised as ligand, peptide as analyte, reference cell CTX-M-14 subtracted, 25 °C, PBS-P+, steady-state 1:1 fit, mean ± SD of three technical replicates, p140Cap peptides tested 0.6–75 μM; for binding to BIN1-SH3 in words: SPR, tested analyte concentrations 0.6–75 μM. Here is the method:
We undertook a candidate approach to identify biologically relevant neuronal proteins that interact with BIN1’s SH3 domain (Fig. 1A). First, we referenced published KD calculations for several BIN1 SH3 domain ligands ([45]), setting a KD cut-off at <10 μM for our study. Then, we obtained a published index of potential protein interactors from a study that computationally predicted the top 100 peptide binding partners for each of 70 human SH3 domains, generated by SH3PepInt, an alignment-free, graph kernel-based tool ([46]). We curated the predicted BIN1 SH3-binding proteins using a set of criteria to ensure: 1) neuronal expression, 2) subcellular localization at the synapse, and 3) molecular functions relevant to neuronal BIN1 in neurotransmitter vesicle dynamics ([25]). We then utilized available protein structures in the Protein Data Bank or those predicted by AlphaFold to confirm the accessibility of each putative SH3-binding site within the full-length protein, prioritizing peptides known to adopt the left-handed polyproline-II helix. From these analyses, we nominated 10 proteins for an initial screening using 14-mer peptides in surface plasmon resonance (SPR) analysis (Fig. 1B). The purified Avi-tagged BIN1 SH3 domain was immobilized as the ligand on flow cell 2, while a nonbinding control protein was immobilized on flow cell 1 (Fig. S1). Subsequently, each peptide was injected in solution over the sensor surface as the analyte (Fig. 1B). To correct for nonspecific binding, response units from flow cell 1 were subtracted from those of flow cell 2 to determine the KD.
The ^1033KPSKSPPPPPPRRS^1046 p140Cap peptide harbors three canonical PRMs: class I, ^1036KSPPPPP^1042; class IIa, ^1038PPPPPRR^1045; and class IIb, ^1037PPPPPPR^1044 (Fig. 2A). […] Thus, we used SPR in combination with alanine-scanning mutagenesis to determine which of the three class motifs on p140Cap mediates binding to BIN1’s SH3 domain. We synthesized 14-mer peptides with alanine substitutions at either the basic residues alone or in combination with the corresponding prolines for all three canonical PRM classes. We also synthesized 7-mer peptides containing the native core motif for cross-referencing (Fig. 2B). […] We reasoned that alanine substitution of residues not involved in BIN1-SH3 binding would produce similar, if not identical, KDs to the native 14-mer peptide. […] Thus, we would be able to identify the precise motif responsible for facilitating the BIN1–p140Cap interaction.
All experiments were conducted using the Biacore S200 (GE Healthcare), equipped with a series S Biotin Capture chip (Cytiva Life Sciences) at 25 °C in 1X PBS-P + [0.2 M phosphate buffer with 27 mM KCl, 1.37 M NaCl, and 0.5% surfactant P20 (Tween 20)] running buffer. The chip surface was first conditioned with three 1-min injections of regeneration solution (3:1 8 M guanidine-HCl: 1 M NaOH) immediately after docking. Biotin CAPture reagent (50 μg/ml in HBS-EP buffer [0.01 M Hepes (pH 7.4), 0.15 M NaCl, 3 mM EDTA, 0.005% surfactant P20]), 3.4 ml) was immobilized on the chip surface at a flow rate of 2 μl/min for 5 min prior to ligand immobilization. Affinity run assays were conducted by immobilizing 50 μg/ml Avi-BSH3 (12 kDa, >90% pure based on SDS-PAGE) diluted in 1X PBS-P+ running buffer at 5 ul/min for 60 s on a streptavidin-coated matrix on flow cell 2. Additionally, 50 μg/ml Avi-tagged nonbinding protein (CTX-M-14 β-lactamase, 30 kDa, >90% pure based on SDS-PAGE) diluted in 1X PBS-P+ running buffer was immobilized at 5 μl/min for 60 s on flow cell 1 to serve as a reference surface for subtraction of bulk refractive index background. To collect affinity data, the analytes were diluted in running buffer and injected over the two flow cells in serial dilution at a flow rate of 30 μl/min. The complexes were allowed to associate and dissociate for 30 s and 300 s, respectively. The surfaces were then regenerated with three 60 s injections of regeneration solution. […]

The target in the next assay is nsP3 (Chikungunya virus) (UniProt Q8JUX6). To be noted: cited from earlier work.
Assay [3] concerns the target T2, Avi-tagged BIN1 SH3 domain (human, UniProt O00499 520-593, biotin within the 15 amino acid AviTag peptide (enzymatic, in E. coli)).
T2 chain: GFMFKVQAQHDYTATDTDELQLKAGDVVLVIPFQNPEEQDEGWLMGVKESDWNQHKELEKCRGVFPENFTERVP
The assay can be described thus: SPR.

The target in assay [4] is T3, Avi-tagged BIN1 SH3 domain (human, UniProt O00499 520-593, biotin within the 15 amino acid AviTag peptide (enzymatic, in E. coli)).
T3 construct: human BIN1 (bridging integrator 1), the C-terminal 81 amino acids that encompass the SH3 domain; 12 kDa by the methods; vector pAviBir, insert between BamHI and NotI; also called Avi-BSH3; AviBir-Bin1 SH3; source: E. coli BL21 (DE3), purified (HisTrap HP, Sephacryl S-200 gel filtration); not shown: AviTag, N-terminal, kept
T3 sequence (looked up): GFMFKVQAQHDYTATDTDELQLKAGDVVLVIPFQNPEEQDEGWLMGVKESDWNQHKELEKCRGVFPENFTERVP
The assay can be described thus: SPR; Biacore S200, Biotin CAPture chip; biotinylated Avi-BIN1-SH3 captured on flow cell 2, Avi-tagged CTX-M-14 β-lactamase on reference flow cell 1; peptides injected as analytes at 30 μl/min; 25 °C, 1X PBS-P+; steady-state analysis, 1:1 model. To be noted: both partners purified.

Assay [5] has as its target T2, Avi-tagged BIN1 SH3 domain. The assay can be described thus: SPR.

A word on the Kd: it is a measure of binding affinity in units of concentration. For the molecule “p140Cap 14-mer peptide 1033-1046 with alanine substitution of the C-terminal arginine (class IIa) (from UniProt Q9C0H9 1033-1046)”, the Kd in assay [1] was found to be 26.3 µM.
“tau from mouse brain (from UniProt P10637-2 1-430) (natural protein)” had a fold less bound than to WT BIN1-SH3 in assay [2] of 2 fold.
As to Ac-KPSKSPPAPPARAS-NH2 [KPSKSPPAPPARAS], the dissociation constant Kd at BIN1 SH3 domain was above 75 µM.
In assay [1], “p140Cap 14-mer peptide 1033-1046 with alanine substitution of the class I lysine (from UniProt Q9C0H9 1033-1046)” yielded a dissociation constant (Kd) of 6.32 µM.
On to Ac-KPSKSPAPPAPARS-NH2 [KPSKSPAPPAPARS], for which the Kd at BIN1 SH3 domain is above 75 µM.
Molecule “p140Cap 14-mer peptide 1033-1046 with alanine substitution of the class I lysine and its corresponding prolines (from UniProt Q9C0H9 1033-1046)” yielded a dissociation constant (Kd) in assay [1] of 21 µM.
With Ac-GYGFRLPPSSPQKL-NH2 [p140Cap498-512], on BIN1 SH3 domain, the equilibrium dissociation constant (Kd) was above 75 µM.
As to “Ac-KSPPPPP-NH2 (N-terminus and C-terminus assumed) [KSPPPPP]”, the “binding to BIN1-SH3 in words” value on BIN1 SH3 domain was “no binding within the range of tested analyte concentrations”.
In the case of BIN1 SH3 (from UniProt O00499), the dissociation constant Kd in the assay with nsP3 (Chikungunya virus) was 0.024 µM.
Turning to Ac-ERSLVGFGPPVPAK-NH2 [p140Cap583-596], the Kd at BIN1 SH3 domain was above 75 µM.
With “Ac-PPPPPPR-NH2 (N-terminus and C-terminus assumed) [PPPPPPR]”, the “binding to BIN1-SH3 in words” value on BIN1 SH3 domain is “outside the range of tested analyte concentrations”.
On to PPPPPPR [p140Cap native class IIb 7-mer peptide], for which the equilibrium dissociation constant (Kd) in assay [3] is above 75 µM.
Ac-KPSKSPPAPPARAS-NH2 yielded a dissociation constant (Kd) in assay [4] above 75 µM.

B1: p140Cap 14-mer peptide 1033-1046 (peptide)
peptide: Ac-KPSKSPPPPPPRRS-NH2
notes: also called p140Cap_(1033-1046); native 14-mer peptide; source: synthetic peptide (GenScript, reversed-phase HPLC, ≥95% purity)
For B1, in assay [4], the affinity, expressed as Kd, was 7.7 µM.
Ac-KPSKSPPPPPPARS-NH2 [p140Cap 14-mer peptide 1033-1046 with alanine substitution of the N-terminal arginine (class IIb)]: in assay [3], the dissociation constant (Kd) was above 75 µM.

B2: p140Cap native class IIa 7-mer peptide (peptide)
peptide: PPPPPRR
notes: human p140Cap, class IIa PRM of the C-terminal proline-rich domain; source: synthetic peptide
Regarding B2, the Kd in assay [4] was 31.7 µM.

B3: tau 13-mer peptide 154-166 (peptide)
peptide: TPSLPTPPTREPK
notes: tau, proline-rich domain, class II PRM extended at both ends; The methods tell acetylation and amination of the ends only for the 14-residue peptides; also called tau_(154-166); 13-mer tau peptide; source: synthetic peptide
In turn, B3 showed a Kd in assay [4] of 484 µM.
In assay [5], Ac-GYGFRLPPSSPQKL-NH2 [p140Cap 14-mer peptide 498-512] came in with a dissociation constant (Kd) above 75 µM.
For the molecule KSPPPPP [p140Cap native class I 7-mer peptide], the Kd in assay [3] is above 75 µM.

B4: p140Cap from mouse brain (natural protein)
chain: MQPWQCLRRFALAWWERTAEGRARSPREEVGPRDPGGRGEPDPERSSPPMLSADDAEYPREYRTLGGGGGGGSGGRRFSNVGLVHTSERRHTVIAAQSLEALSGLQKADADRKRDAFMDHLKSKYPQHALALRGQQDRMREQVGGWTVDPVCLLSSLCSHLHGDSTPSGAGQPAQQPNYWSFKTRSSRHTQGAQPGLADQAAKLSYASAESLETMSEAELPLGFSRMNRFRQSLPLSRSASQTKLRSPGVLFLQFGEETRRVHITHEVSSLDTLHALIAHMFPQKLTMGMLKSPNTAILIKDEARNVFYELEDVRDIQDRSIIKIYRKEPLYAAFPGSHLTNGDLRREMVYASRESSPTRRLNNLSPASHLASSSPPPGLPSGLPSGLPSGSPSRSRLSYAGGRPPSYAGSPVHHAAERLGGAPTGQGVSPSPSAILERRDVKPDEDLAGKAGGMVLVKGEGLYADPYGLLHEGRLSLAAAAETHSHTRARAACTSGVPCALSAPTPLPRCSPTWRTRCTRRALAALYGDGYGFRLPPSSPQKLADVSAPSGGPPPPHSPYSGPPSRGSPVRQSFRKDSGSSSVFAESPGGKARSTGSASTAGAPPSELFPGPGERSLVGFGPPVPAKDTETRERMEAMEKQIASLTGLVQSALLRGSEPETPSEKVEGSNGAATPSAPVCGSGSKSSGATPVSGPPPPSASSTPAGQPTAVSRLQMQLHLRGLQNSASDLRGQLQQLRNVQLQNQESVRALLKPTEADVSMRVSEAARRQEDPLQRQRTLVEEERLRYLNDEELITQQLNDLEKSVEKIQRDVAHNHRLMPGPELEEKALVLKQLGETLTELKAHFPGLQSKMRVVLRVEVEAVKFLKEEPQRLDGLLKRCRGVTDTLAQIRRQVDEGMWPPPNNLLNQSPKKVAAETDFSKGLDFEIPPPSPPLNLHELSGPAEGTPLTPKSTNPTKCLDASSKRNTDKAVSVEAAERDWEEKRAALTQYSAKDINRLLEETQAELLKAIPDLDCASKTHPGPAPTPDHKPPKAPHGQKAAPRTEPSGRRGSDELTVPRYRTEKPSKSPPPPPPRRSFPSSHGLTTTRTGEVVVTSKKDSVFIKKAESEELEVQKPQVKLRRAVSEVVRPASTPPIMASAIKDEDDEERIIAELESGGSSVPPMKVVTPGASRLKAAQGPAGSPDKGKHGKQRTEYMRIQAQQQATKPSKEVSGPNETSSPGSEKPSGSRTSIPVLTSFGARNSSISF
In assay [2], B4 displayed a fold less bound than to WT BIN1-SH3 of 2.6 fold.

B5: tau 6-mer peptide 158-163 (peptide)
peptide: PTPPTR
notes: tau, proline-rich domain, minimum consensus class II PRM; The methods tell acetylation and amination of the ends only for the 14-residue peptides; also called tau_(158-163); 6-mer tau peptide; source: synthetic peptide
With B5, the Kd in assay [4] was 288 µM.
In assay [5], Ac-ERSLVGFGPPVPAK-NH2 [p140Cap 14-mer peptide 583-596] yielded a Kd above 75 µM.
